Test system: Escherichia coli TOP10
Assay: shrunken log2 fold change of peptide-encoding DNA abundance (4.5 h post-induction vs induction); higher = less antimicrobial activity (less host growth inhibition)
Settings: time post-induction: 4.5 h; library: site-saturation at positions 5, 18, 19, 20
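Note: peptides expressed intracellularly from a pBAD plasmid library in pooled LB shake-flask culture, induced with 0.3% L-arabinose, DNA abundance read by NGS, three biological replicates, DESeq2 with apeglm shrinkage.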

Sequence	shrunken log2 fold change
RRIRMRPPRLPRPRPRPYNWPRP	-0.337
RRIRWRPPRLPRPRPRPATHPRP	0.0538
RRIRLRPPRLPRPRPRPERPPRP	0.157
RRIRQRPPRLPRPRPRPFIFPRP	-0.257
RRIRLRPPRLPRPRPRPMNQPRP	-0.302
RRIRKRPPRLPRPRPRPDLLPRP	0.237
RRIRLRPPRLPRPRPRPSSDPRP	0.128
RRIRARPPRLPRPRPRPMHAPRP	0.409
RRIRRRPPRLPRPRPRPFKHPRP	-0.212
RRIRPRPPRLPRPRPRPMVMPRP	-0.0504
RRIRARPPRLPRPRPRPPYQPRP	0.171
RRIRLRPPRLPRPRPRPCVMPRP	0.025
RRIRNRPPRLPRPRPRPTQCPRP	-0.093
RRIRKRPPRLPRPRPRPAVVPRP	0.0614
RRIRHRPPRLPRPRPRPVGYPRP	0.00996
RRIRYRPPRLPRPRPRPGRYPRP	-0.912
RRIRWRPPRLPRPRPRPCASPRP	-0.0152
RRIRWRPPRLPRPRPRPGTWPRP	0.0354
RRIRCRPPRLPRPRPRPEQDPRP	-0.0796
RRIRRRPPRLPRPRPRPGRFPRP	0.451
RRIRARPPRLPRPRPRPVHMPRP	-0.00775
RRIRARPPRLPRPRPRPNDWPRP	0.466

Sequence	shrunken log2 fold change
RRIRNRPPRLPRPRPRPTSDPRP	-0.148
RRIRRRPPRLPRPRPRPSTPPRP	0.225
RRIRGRPPRLPRPRPRPVGAPRP	1.13
RRIRLRPPRLPRPRPRPQIGPRP	0.0441
RRIRERPPRLPRPRPRPLIAPRP	-0.128
RRIRNRPPRLPRPRPRPAALPRP	0.341
RRIRKRPPRLPRPRPRPEHIPRP	0.0147
RRIRCRPPRLPRPRPRPPWRPRP	0.751
RRIRLRPPRLPRPRPRPPLGPRP	0.409
RRIRVRPPRLPRPRPRPFKAPRP	-0.316
RRIRWRPPRLPRPRPRPSTHPRP	0.667
RRIRCRPPRLPRPRPRPHAIPRP	-0.139
RRIRTRPPRLPRPRPRPLPIPRP	-0.0647
RRIRERPPRLPRPRPRPSNCPRP	-0.0637
RRIRQRPPRLPRPRPRPFYRPRP	-0.0149
RRIRYRPPRLPRPRPRPHQEPRP	-0.0108
RRIRKRPPRLPRPRPRPVSAPRP	0.887
RRIRVRPPRLPRPRPRPTSCPRP	0.961
RRIRCRPPRLPRPRPRPQMWPRP	0.0606
RRIRFRPPRLPRPRPRPQDDPRP	-0.493
RRIRMRPPRLPRPRPRPTAQPRP	0.819
RRIRERPPRLPRPRPRPVQYPRP	-0.418

Sequence	shrunken log2 fold change
RRIRLRPPRLPRPRPRPHNLPRP	-0.11
RRIRIRPPRLPRPRPRPRPPPRP	0.635
RRIRQRPPRLPRPRPRPNVGPRP	-0.0447
RRIRERPPRLPRPRPRPAYFPRP	0.019
RRIRYRPPRLPRPRPRPAACPRP	0.115
RRIRFRPPRLPRPRPRPVPDPRP	-0.136
RRIRFRPPRLPRPRPRPVASPRP	0.0266
RRIRVRPPRLPRPRPRPMCMPRP	0.0119
RRIRIRPPRLPRPRPRPKIGPRP	-0.0343
RRIRDRPPRLPRPRPRPYGRPRP	-0.0901
RRIRYRPPRLPRPRPRPGDYPRP	0.065
RRIRARPPRLPRPRPRPNDYPRP	-0.471
RRIRERPPRLPRPRPRPRYCPRP	-0.516
RRIRWRPPRLPRPRPRPMCGPRP	0.205
RRIRCRPPRLPRPRPRPPGCPRP	0.412
RRIRSRPPRLPRPRPRPRRAPRP	0.41
RRIRCRPPRLPRPRPRPHSWPRP	-0.301
RRIRVRPPRLPRPRPRPMNEPRP	-0.111
RRIRMRPPRLPRPRPRPRGLPRP	0.727
RRIRKRPPRLPRPRPRPIGNPRP	0.0844
RRIRMRPPRLPRPRPRPPADPRP	2.99
RRIRCRPPRLPRPRPRPNCAPRP	0.00777

Sequence	shrunken log2 fold change
RRIRKRPPRLPRPRPRPFVFPRP	0.277
RRIRERPPRLPRPRPRPKKAPRP	-0.0599
RRIRWRPPRLPRPRPRPCRAPRP	0.217
RRIRGRPPRLPRPRPRPEEGPRP	0.0303
RRIRCRPPRLPRPRPRPMLLPRP	0.00507
RRIRVRPPRLPRPRPRPFASPRP	0.0656
RRIRGRPPRLPRPRPRPWPVPRP	0.674
RRIRERPPRLPRPRPRPTGMPRP	-0.128
RRIRDRPPRLPRPRPRPNAVPRP	-0.101
RRIRARPPRLPRPRPRPVFAPRP	0.561
RRIRPRPPRLPRPRPRPWEDPRP	0.00408
RRIRPRPPRLPRPRPRPREMPRP	0.319
RRIRIRPPRLPRPRPRPRVQPRP	0.0871
RRIRHRPPRLPRPRPRPQERPRP	-0.0325
RRIRCRPPRLPRPRPRPKRSPRP	0.235
RRIRRRPPRLPRPRPRPCTEPRP	0.106
RRIRSRPPRLPRPRPRPFKNPRP	-0.378
RRIRTRPPRLPRPRPRPEKPPRP	0.0634
RRIRFRPPRLPRPRPRPCDCPRP	-0.0184
RRIRWRPPRLPRPRPRPVNRPRP	-0.00204
RRIRLRPPRLPRPRPRPKMKPRP	-0.476
RRIRIRPPRLPRPRPRPRNQPRP	-0.542

Sequence	shrunken log2 fold change
RRIRERPPRLPRPRPRPHMGPRP	-0.00822
RRIRSRPPRLPRPRPRPIVPPRP	-0.0492
RRIRQRPPRLPRPRPRPIYSPRP	-0.1
RRIRHRPPRLPRPRPRPFWRPRP	-0.0343
RRIRMRPPRLPRPRPRPIVDPRP	0.35
RRIRLRPPRLPRPRPRPMQAPRP	-0.0495
RRIRRRPPRLPRPRPRPNNMPRP	-0.348
RRIRNRPPRLPRPRPRPRARPRP	0.856
RRIRGRPPRLPRPRPRPQTEPRP	0.149
RRIRQRPPRLPRPRPRPMFRPRP	-0.0146
RRIRARPPRLPRPRPRPHFEPRP	0.703
RRIRYRPPRLPRPRPRPHNSPRP	-0.753
RRIRGRPPRLPRPRPRPPFRPRP	0.681
RRIRSRPPRLPRPRPRPACGPRP	0.436
RRIRVRPPRLPRPRPRPMGKPRP	-0.0406
RRIRARPPRLPRPRPRPVYLPRP	-0.622
RRIRWRPPRLPRPRPRPRYKPRP	-0.104
RRIRNRPPRLPRPRPRPHDSPRP	-0.0662
RRIRDRPPRLPRPRPRPGISPRP	0.0115
RRIRNRPPRLPRPRPRPEFGPRP	-0.106
RRIRDRPPRLPRPRPRPSGSPRP	-0.00469
